Results from PMC10497828 (2023).

How the values were obtained:
amyloid beta monomer = amyloid beta monomer (Homo sapiens, UniProt P05067); assay: saturation binding/Scatchard
amyloid beta oligomers = amyloid beta oligomers (Homo sapiens, UniProt P05067); assay: saturation binding/Scatchard
Sequence of amyloid beta oligomers (P05067 672-713): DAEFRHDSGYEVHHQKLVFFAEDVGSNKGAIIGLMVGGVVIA

Sequence of amyloid beta monomer (P05067 672-713): as above

- Kd (amyloid beta monomer): 19 µM
- Kd (amyloid beta oligomers): 0.012 µM
B1: BP (VEGF-derived peptide) (protein)
chain: MTDRQTDTAPSPSYHLLPGRRRTVDAAASRGQGPEPAPGGGVEGVGARGVALKLFVQLLGCSRFGGAVVRAGEAEPSGAARSASSGREEPQPEEGEEEEEKEEERGPQWRLGARKPGSWTGEAAVCADSAPAARAPQALARASGRGGRVARRGAEESGPPHSPSRRGSASRAGPGRASETMNFLLSWVHWSLALLLYLHHAKWSQAAPMAEGGGQNHHEVVKFMDVYQRSYCHPIETLVDIFQEYPDEIEYIFKPSCVPLMRCGGCCNDEGLECVPTEESNITMQIMRIKPHQGQHIGEMSFLQHNKCECRPKKDRARQEKKSVRGKGKGQKRKRKKSRYKSWSVPCGPCSERRKHLFVQDPQTCKCSCKNTDSRCKARQLELNERTCRCDKPRR
